Source: ChEMBL document CHEMBL1671790, “A new β-carbonic anhydrase from Brucella suis, its cloning, characterization, and inhibition with sulfonamides and sulfamates, leading to impaired pathogen growth” (Bioorg Med Chem, 2011)

Columns and labels:
[1] = substrate: O=C=O; experiment: Ratio of kcat to Km for human carbonic anhydrase VA
[2] = substrate: O=C=O; experiment: Activity at human carbonic anhydrase VA by spectrophotometry at pH 7.5
[3] = substrate: O=C=O; experiment: Activity at human carbonic anhydrase XII by spectrophotometry at pH 7.5
[4] = substrate: O=C=O; experiment: Ratio of kcat to Km for human carbonic anhydrase XII

Protein | kcat/Km [1] [×10⁷ /M/s] | kcat [2] [×10⁵ /s] | kcat [3] [×10⁵ /s] | kcat/Km [4] [×10⁷ /M/s]
Carbonic anhydrase 5A, mitochondrial (Homo sapiens), P35218 (protein) MLGRNTWKTSAFSFLVEQMWAPLWSRSMRPGRWCSQRSCAWQTSNNTLHPLWTVPVSVPGGTRQSPINIQWRDSVYDPQLKPLRVSYEAASCLYIWNTGYLFQVEFDDATEASGISGGPLENHYRLKQFHFHWGAVNEGGSEHTVDGHAYPAELHLVHWNSVKYQNYKEAVVGENGLAVIGVFLKLGAHHQTLQRLVDILPEIKHKDARAAMRPFDPSTLLPTCWDYWTYAGSLTTPPLTESVTWIIQKEPVEVAPSQLSAFRTLLFSALGEEEKMMVNNYRPLQPLMNRKVWASFQATNEGTRS | 2.9 | 2.9 |  | 
Carbonic anhydrase 12 (Homo sapiens), O43570 (protein) MPRRSLHAAAVLLLVILKEQPSSPAPVNGSKWTYFGPDGENSWSKKYPSCGGLLQSPIDLHSDILQYDASLTPLEFQGYNLSANKQFLLTNNGHSVKLNLPSDMHIQGLQSRYSATQLHLHWGNPNDPHGSEHTVSGQHFAAELHIVHYNSDLYPDASTASNKSEGLAVLAVLIEMGSFNPSYDKIFSHLQHVKYKGQEAFVPGFNIEELLPERTAEYYRYRGSLTTPPCNPTVLWTVFRNPVQISQEQLLALETALYCTHMDDPSPREMINNFRQVQKFDERLVYTSFSQVQVCTAAGLSLGIILSLALAGILGICIVVVVSIWLFRRKSIKKGDNKGVIYKPATKMETEAHA |  |  | 4.2 | 3.5
